Numbering of substitutions follows the chain as printed.
T1: Recombinant human Angiopoietin-2 (R&D Systems Cat No 623-AN/CF) (human, UniProt O15123 19-496, limits assumed)
T1 construct: Bought reagent; also called Ang2; human Ang2
T1 sequence (looked up): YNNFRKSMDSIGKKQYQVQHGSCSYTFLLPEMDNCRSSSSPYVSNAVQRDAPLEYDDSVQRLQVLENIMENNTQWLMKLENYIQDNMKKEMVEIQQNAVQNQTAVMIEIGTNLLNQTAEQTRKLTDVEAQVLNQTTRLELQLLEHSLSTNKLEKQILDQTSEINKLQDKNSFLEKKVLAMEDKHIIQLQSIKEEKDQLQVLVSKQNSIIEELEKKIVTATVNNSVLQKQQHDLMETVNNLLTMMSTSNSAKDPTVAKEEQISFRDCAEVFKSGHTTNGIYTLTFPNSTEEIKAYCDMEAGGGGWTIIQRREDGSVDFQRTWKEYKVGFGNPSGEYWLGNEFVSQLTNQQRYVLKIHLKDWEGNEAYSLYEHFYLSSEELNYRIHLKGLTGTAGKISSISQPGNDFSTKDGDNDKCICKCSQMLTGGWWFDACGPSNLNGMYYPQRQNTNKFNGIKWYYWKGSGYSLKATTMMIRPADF

T2: Recombinant human Angiopoietin-4 (R&D Systems Cat No 964-AN/CF) (human, UniProt Q9Y264 25-503, limits assumed)
T2 construct: Bought reagent; also called Ang4
T2 sequence (looked up): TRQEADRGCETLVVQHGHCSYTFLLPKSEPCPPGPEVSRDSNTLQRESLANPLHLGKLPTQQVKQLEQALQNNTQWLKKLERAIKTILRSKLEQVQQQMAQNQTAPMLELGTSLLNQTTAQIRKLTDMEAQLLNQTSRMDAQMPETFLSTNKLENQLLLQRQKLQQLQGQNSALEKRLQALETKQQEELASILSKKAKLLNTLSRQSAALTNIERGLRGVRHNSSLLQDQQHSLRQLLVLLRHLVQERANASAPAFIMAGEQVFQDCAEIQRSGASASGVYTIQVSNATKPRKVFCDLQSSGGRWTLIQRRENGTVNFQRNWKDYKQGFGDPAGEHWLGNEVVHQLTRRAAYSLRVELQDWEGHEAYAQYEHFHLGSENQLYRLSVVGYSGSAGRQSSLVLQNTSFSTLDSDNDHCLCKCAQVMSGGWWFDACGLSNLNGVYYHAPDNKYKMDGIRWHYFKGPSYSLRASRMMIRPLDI

T3: biotinylated rh Ang2 (R&D Systems Cat No BT623, Lot No BNR174091) (human, UniProt O15123 19-496, limits assumed, biotinylated (sites not given))
T3 construct: Bought reagent; also called biotinylated Ang2
T3 sequence (looked up): T1 sequence (looked up)

B1: 166-C1 (VHH)
VHH: EVQLVESGGGLVQAGGSLRLSCAASGFTFGSTTIGWFRQAPGKEREGVSCISTGDGSTYYAESVKGRFTISSDNAKNTVYLQMNSLKPEDTAVYYCALDQAPMWSSWSAPYEYDYWGQGTQVTVSS
notes: Nanobody
B2: 166-C10 (VHH)
VHH: B1 VHH with S31T, Y59N
notes: Nanobody
B3: 166-E12 (VHH)
VHH: B1 VHH with E1K
notes: Nanobody
B4: 166-F8 (VHH)
VHH: B1 VHH with S31T, G47V, D55G, A61T, S106N
notes: Nanobody
B5: 166-D7 (VHH)
VHH: B1 VHH with G30S, S31D, V48I, K87N, M103L, S106T
notes: Nanobody
B6: 166-D4 (VHH)
VHH: EVQLVESGGGLVQAGGSLRLSCVASGRIFTNTAMGWYRQAPGKWRELVATIYSGGSTKYIDSVKGRFIISRDNTRNTVHLQMNSLKPEDTAVYYCNTVGAGSYWGQGAQVTVSS
notes: Nanobody
B7: 163-H8 (VHH)
VHH: EVQLVESGGGLVQPGGSLRLSCAASGFTFGSNGMRWVRQAPGKGPEWVSSINSDGTSTYYAESVKGRFTISRDNAKNTLYLQMHSLKPEDTAVYYCTTTENPNPRGPGTQVTVSS
notes: Nanobody
B8: 163-G8 (VHH)
VHH: B7 VHH with T58A, Y59F, H84N, E100M, P107Q
notes: Nanobody
B9: 163-E9 (VHH)
VHH: B7 VHH with G16D, E62D, Y80C, H84N, N101D, N103Y, P107Q
notes: Nanobody; also called Nanobody 163E9; Tie-2 Nanobody 163E9
B10: 163-E7 (VHH)
VHH: EVQLVESGGGLVQPGGSLRLSCAASGFTFSDYSMSWVRQAPGKGLEWVSAISGGGEVTTYADSVKGRFTISRDNAKNTLYLQMSSLKPEDTALYYCAEHLNFYSVSVRSSPTSQGTQVTVSS
notes: Nanobody
B11: 162-F11 (VHH)
VHH: EVQLVESGGGLVQAGGSLRLSCAASGFTFDDYAIGWFRQAPGKEREGVACISSSDGSTYYADSVKGRFTISSDNAKNTVYLQMNSLKPEDTAVYSCSAGSVAGCIPYYWGQGTQVTVSS
notes: Nanobody
B12: 162-H10 (VHH)
VHH: EVQLVESGGGLVQPGGSLRLSCAASGFTLDDYAVGWFRQAPGKEREGVSCIGSSYGSTYYADSVKGRFTISRDNAKNTVYLQMNSLKPEDTAVYYCAVQGYSGGYYYTCEDSADFGFWGQGTQVTVSS
notes: Nanobody
B13: 168-G3 (VHH)
VHH: EVQLVESGGGLVQPGGSLRLSCAASGSTLDYYAIGWYRQAPGKEREWVSCISSSNYGITTYADSVKGRFTISRDNAKNTVYLQMNSLKPEDTAIYYCATNTRRKYGRLCDLNADYWGQGTQVTVSS
notes: Nanobody
B14: 169-B12 (VHH)
VHH: EVQLVESGGGLVQAGGSLRLSCAASGSIFSINAMGWYRQAPGNQRDLVAAITSGDSTKYADFVKGRFTISRDNAKNTVYLQMNSLKPEDTAVYYCAAELLGKWYWGQGTQVTVSS
notes: Nanobody
B15: 169-E12 (VHH)
VHH: B14 VHH with A33T, S53N, D55G, A60V, F62S, L99S, K102R, Y104G
notes: Nanobody
B16: 169-F11 (VHH)
VHH: EVQLVESGGGLVQPGGSLRLSCATSGFTFSTSWMYWLRQAPGKGLEWVSTITPRGLTDYTNSVKGRFTVSRDNAKNTLYLQMNSLKSEDTAVYYCTKDKNGPPMGQGTQVTVSS
notes: Nanobody
B17: 169-C8 (VHH)
VHH: B16 VHH with N61D, V69I, N73S, V92D, K97R
notes: Nanobody
B18: 169-A10 (VHH)
VHH: B16 VHH with T31P, D58E, T60A, V69I, R71K, K97R
notes: Nanobody
B19: 169-A12 (VHH)
VHH: EVQLVESGGGLVQPGGSLRLSCVASGSIRSIIHMGWYRQAPGNERDLVAVIIDSRTTKYSESVKGRFTISRDNAKNTVYLQMNSLKPEDTAVYYCNALALGTDQSSTFDSWGQGTQVTVSS
notes: Nanobody
B20: 169-C12 (VHH)
VHH: B19 VHH with V23A, A40T, L47M, S60A
notes: Nanobody
B21: 168-A3 (VHH)
VHH: EVQLVESGGGLVQPGGSLRLSCAASGFTLSGNWMYWLRQAPGKGLEWISTITPRGLTAYADSVKGRFTISRDIAENTLYLQMNSLKSGDTAVYYCARDKTGERRGQGTQVTVSS
notes: Nanobody
B22: 168-E5 (VHH)
VHH: B21 VHH with G31S, G55D, I73N, G88E, R97K, T100A
notes: Nanobody

Target: T1, Recombinant human Angiopoietin-2 (R&D …)
Experiment: phage ELISA: 10 ul monoclonal phage supernatant in 100 ul on 0.2 ug/ml coated Ang2, anti-M13-HRP, OD 450 nm
Method: In order to determine binding specificity to Ang2, the clones are tested in an ELISA binding assay setup, using the monoclonal phage pools. Phage binding to Ang2 (R&D Systems Cat No 623-AN/CF) is tested. Shortly, 0.2 ug/ml Ang2 is immobilized on Maxisorp ELISA plates (Nuns) and free binding sites are blocked using 4% Marvel skimmed milk in PBS. Next, 10 ul of supernatant from the monoclonal phage inductions of the different clones in 100 ul 2% Marvel. PBS are allowed to bind to the immobilized antigen. […] Binding specificity is determined based on OD values compared to controls having received an irrelevant phage or no phage.

| Binder | binding result |
| --- | --- |
| B1 | binds |
| B2 | binds |
| B3 | binds |
| B4 | binds |
| B5 | binds |
| B6 | binds |

Target: T4, recombinant human Tie2/Fc Chimera (R&D Systems Cat No 313-TI, Lot No BKC06) (human, UniProt Q02763 23-745)
T4 construct: Bought reagent; also called receptor; not shown: Fc portion of the bought chimera
T4 sequence (Q02763 23-745, change not shown): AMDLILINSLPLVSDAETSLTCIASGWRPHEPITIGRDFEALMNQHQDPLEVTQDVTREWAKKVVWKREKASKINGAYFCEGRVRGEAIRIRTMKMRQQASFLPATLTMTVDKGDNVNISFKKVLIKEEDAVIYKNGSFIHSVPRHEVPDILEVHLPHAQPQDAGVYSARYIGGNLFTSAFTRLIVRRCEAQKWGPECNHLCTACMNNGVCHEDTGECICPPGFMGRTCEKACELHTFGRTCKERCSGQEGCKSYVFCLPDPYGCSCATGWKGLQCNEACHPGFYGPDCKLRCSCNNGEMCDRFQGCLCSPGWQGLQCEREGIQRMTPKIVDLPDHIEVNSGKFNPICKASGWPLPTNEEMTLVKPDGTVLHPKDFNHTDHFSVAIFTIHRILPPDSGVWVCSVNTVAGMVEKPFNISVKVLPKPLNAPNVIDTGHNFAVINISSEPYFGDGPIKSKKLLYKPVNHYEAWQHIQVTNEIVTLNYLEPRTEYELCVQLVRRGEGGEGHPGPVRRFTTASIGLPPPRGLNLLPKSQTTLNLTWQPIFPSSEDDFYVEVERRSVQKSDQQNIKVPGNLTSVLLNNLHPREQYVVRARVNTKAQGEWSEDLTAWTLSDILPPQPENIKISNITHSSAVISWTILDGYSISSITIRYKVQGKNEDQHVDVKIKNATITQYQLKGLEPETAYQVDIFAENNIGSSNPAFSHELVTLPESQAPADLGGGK
Experiment: competition ELISA: 0.2 ug/ml Tie2/Fc pre-incubated with 10 ul periplasmic extract, then on coated Ang1 (0.75 ug/ml); bound Tie2/Fc detected with anti-human IgG-HRP; blocked ligand: Ang1
Method: Clones tested positive in the Tie2 binding assay are screened for their ability to block Ang1 binding to Tie2/Fc. For this, Nanobody-containing periplasmic extracts (P.E.) are used in an ELISA-based ligand competition setup. In short, 0.75 ug/ml human Ang1 (R&D Systems Cat No 923-AN/CF Lot No FHWO73091) is coated in 96 well Maxisorp microtiter plates (Nunc) and blocked with 4% Marvel skimmed milk in PBS. In parallel, 0.2 ug/ml Tie2/Fc is incubated with 10 ul of periplasmic extract P.E. containing nanobody of the different clones in 100 ul 2% Marvel/PBS. After 1 hour, the receptor-Nanobody pre-mixes are incubated 1 hour with the coated ligand. Bound Tie2/Fc is detected using HRP-conjugated goat anti-human IgG (Jackson Immunoresearch, Cat #109-035-098). Blocking activity is determined as loss of OD signal, as compared to wells where no P.E., or irrelevant P.E., has been added.

| Binder | binding result |
| --- | --- |
| B7 | binds |
| B8 | binds |
| B9 | binds |
| B10 | binds |
| B11 | binds |
| B12 | binds |

Target: T2, Recombinant human Angiopoietin-4 (R&D …)
Experiment: phage ELISA on coated Ang4: 10 ul monoclonal phage supernatant in 100 ul, anti-M13-HRP, OD 450 nm

| Binder | binding result |
| --- | --- |
| B13 | binds |
| B14 | binds |
| B15 | binds |
| B16 | binds |
| B17 | binds |
| B18 | binds |
| B19 | binds |
| B20 | binds |
| B21 | binds |
| B22 | binds |

Target: T3, biotinylated rh Ang2 (R&D Systems Cat …)
Experiment: competition ELISA: 0.05 ug/ml biotinylated Ang2 pre-incubated with 10 ul periplasmic extract, then on coated Tie2/Fc (4 ug/ml); bound Ang2 detected with extravidin-HRP; blocked partner: Tie2/Fc
Method: Clones tested positive in the Ang2 binding assay are screened for their ability to block Ang2 binding to Tie2/Fc. For this, Nanobody-containing periplasmic extracts (P.E.) are used in an ELISA-based ligand competition setup. In short, 4 ug/ml human Tie2/Fc Chimera (R&D Systems Cat No 313-TI, Lot No BKC06)) is coated in 96 well Maxisorp microliter plates (Nunc) and blocked with 4% Marvel skimmed milk in PBS. In parallel, 0.05 ug/ml biotinylated rh Ang2 (R&D Systems Cat No BT623, Lot No BNR174091) is incubated with 10 ul of periplasmic extract containing nanobody of the different clones in 100 ul 2% Marvel/PBS. After 1 hour, the biotinylated Ang2-Nanobody pre-mixes are incubated 1 hour with the coated receptor. Bound biotinylated. Ang2 is detected using HRP-conjugated extravidin (SIGMA E2886-1mL, 126K4801). Blocking activity is determined as loss of OD signal, as compared to wells where no P.E., or irrelevant P.E., has been added.

| Binder | binding result |
| --- | --- |
| B1 | binds |
| B2 | binds |
| B4 | binds |
| B5 | binds |
